Earlier results, collected in patent publication US7132274B2, “Method for identifying modulators of CLK-1 and UbiF activity” (priority 2003, dated 2006).

Tested on: E. coli JF496 (ubiF411)
Details: yeast orthologue of clk-1; cited from earlier work

B1: Saccharomyces pombe coq7: yeast orthologue of clk-1 (protein, UniProt O74826 28-216, looked up)
5-demethoxyubiquinone …: ISMGRKELSEKDSNILDSVIRVDQAGELGANQIYKGQHFILQFTDPKVAPTIQHMWDQEKYHLATFDNYVLKNRVRPTFLRPFWDIAGFALGAGTALLGTKAAMACTEAVETVIGGHYNDQLRETAHLENKAPEFKEIRSHLAEFRDDELEHLNTAVEGWNAKEAPAHALLTNAIQMGCKAAIWMCKRF
complementation of UbiF-deficiency in JF496 bacteria: cannot complement
